Consider 72 substances from patent publication US20220289816A1, “IMMUNOTHERAPY WITH B*07 RESTRICTED PEPTIDES AND COMBINATION OF PEPTIDES AGAINST CANCERS AND RELATED METHODS” (Immatics Biotechnologies GmbH, priority 2018, published 2022).

The target of the experiment is HLA-B*07 (Homo sapiens, UniProt P01889). The experiment is described as follows: MHC binding assay (UV-ligand exchange, ELISA of stabilized MHC complexes). As to conditions: peptide exchange yield on HLA-B*07, UV-ligand exchange. In outline:
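Peptide–MHC complexes were made by UV-ligand exchange, in which a UV-cleavable peptide is replaced by the test peptide. Exchange yield was measured by ELISA of stabilized complexes on streptavidin-coated plates, using HRP anti-β2m detection (1 h, 37 °C), TMB substrate and absorbance at 450 nm.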
For the substance “337 (IPTSRVITL; listed as Homo sapiens) [compound 337]”, the Peptide exchange result was “++++ (>75% = ++++)”.

On to “338 (MPATPSLKV; listed as Homo sapiens) [compound 338]”, for which the Peptide exchange entry is on record as “+++ (>50 = +++)”. Regarding “339 (GPQRTTSV; listed as Homo sapiens) [compound 339]”, the Peptide exchange result is “+++ (>50 = +++)”. As for “340 (APEPRAALL; listed as Homo sapiens) [compound 340]”, the Peptide exchange entry is recorded as “+++ (>50 = +++)”.

For the substance “341 (LPRSPPLKVL; listed as Homo sapiens) [compound 341]”, the Peptide exchange entry is reported as “++++ (>75% = ++++)”. With “342 (RPRPPKVL; listed as Homo sapiens) [compound 342]” the entry was “+++ (>50 = +++)”; with “343 (RPRPPKVLGL; listed as Homo sapiens) [compound 343]”, “+++ (>50 = +++)”; with “344 (VPYPSPTCV; listed as Homo sapiens) [compound 344]”, “++++ (>75% = ++++)”. For the substance “345 (SAAPPGASL; listed as Homo sapiens) [compound 345]”, the Peptide exchange entry was “+++ (>50 = +++)”. Turning to “346 (IPMPRITWL; listed as Homo sapiens) [compound 346]”, the Peptide exchange result was “++++ (>75% = ++++)”. For “347 (SPLEKINSF; listed as Homo sapiens) [compound 347]”, the Peptide exchange entry is recorded as “++++ (>75% = ++++)”. On to “348 (HPAPPVTSA; listed as Homo sapiens) [compound 348]”, for which the Peptide exchange result is recorded as “+++ (>50 = +++)”. For “349 (QPRDGWPMML; listed as Homo sapiens) [compound 349]”, the Peptide exchange entry is on record as “++++ (>75% = ++++)”. Consider “350 (RPKSTLMNF; listed as Homo sapiens) [compound 350]”, for which the Peptide exchange entry is “++++ (>75% = ++++)”. For “351 (SPYADIIPSA; listed as Homo sapiens) [compound 351]”, the Peptide exchange entry is “+++ (>50 = +++)”. Consider “352 (LPAFSKIGGIL; listed as Homo sapiens) [compound 352]”, for which the Peptide exchange entry is recorded as “++++ (>75% = ++++)”. With “353 (KPRATWTL; listed as Homo sapiens) [compound 353]” the entry was “+++ (>50 = +++)”; with “354 (APAKDARASL; listed as Homo sapiens) [compound 354]”, “++++ (>75% = ++++)”; with “355 (APKTSFIAA; listed as Homo sapiens) [compound 355]”, “++++ (>75% = ++++)”. With “356 (RPFLRLPSL; listed as Homo sapiens) [compound 356]” the entry was “+++ (>50 = +++)”; with “357 (LPPHIFAI; listed as Homo sapiens) [compound 357]”, “++ (>20% = ++)”. For “358 (APSMLRKNQL; listed as Homo sapiens) [compound 358]” the value was “+++ (>50 = +++)”. On to “359 (SPRRLVELAGQSL; listed as Homo sapiens) [compound 359]”, for which the Peptide exchange result is “++++ (>75% = ++++)”. As for “360 (SPASRSISLL; listed as Homo sapiens) [compound 360]”, the Peptide exchange entry was “++++ (>75% = ++++)”. For the substance “362 (KPMLPPAAF; listed as Homo sapiens) [compound 362]”, the Peptide exchange result is reported as “+++ (>50 = +++)”. As for “363 (KPRTPFTTA; listed as Homo sapiens) [compound 363]”, the Peptide exchange result is “++++ (>75% = ++++)”.

Take “367 (APQVHIFSL; listed as Homo sapiens) [compound 367]”: the Peptide exchange result is on record as “++++ (>75% = ++++)”. As for “368 (NPASRLTAL; listed as Homo sapiens) [compound 368]”, the Peptide exchange result is “++++ (>75% = ++++)”.

In the case of “369 (RPYGCVLRAA; listed as Homo sapiens) [compound 369]”, the Peptide exchange entry is given as “++++ (>75% = ++++)”. With “370 (AAHEFGHVL; listed as Homo sapiens) [compound 370]” the entry was “++ (>20% = ++)”; with “371 (APRSPGQVTPRGL; listed as Homo sapiens) [compound 371]”, “+++ (>50 = +++)”; with “372 (SPSSASLTL; listed as Homo sapiens) [compound 372]”, “++++ (>75% = ++++)”. In the case of “373 (LPKPDLPQLI; listed as Homo sapiens) [compound 373]”, the Peptide exchange result is given as “+ (>10% = +)”. Take “374 (KPRNMTGLDL; listed as Homo sapiens) [compound 374]”: the Peptide exchange result is recorded as “++++ (>75% = ++++)”. Consider “375 (LPRGVLEGL; listed as Homo sapiens) [compound 375]”, for which the Peptide exchange result is “++++ (>75% = ++++)”.

In the case of “376 (FPQVGRTAL; listed as Homo sapiens) [compound 376]”, the Peptide exchange entry is on record as “++++ (>75% = ++++)”. Regarding “377 (SPFSKRIKL; listed as Homo sapiens) [compound 377]”, the Peptide exchange result is given as “+++ (>50 = +++)”. “378 (SPRQPRLDF; listed as Homo sapiens) [compound 378]”: the Peptide exchange entry was “++++ (>75% = ++++)”. Take “379 (GPRQVLFPL; listed as Homo sapiens) [compound 379]”: the Peptide exchange result is given as “++++ (>75% = ++++)”.

Take “380 (SPYPGSAAF; listed as Homo sapiens) [compound 380]”: the Peptide exchange entry is on record as “++++ (>75% = ++++)”.

As for “381 (APRPRLLLL; listed as Homo sapiens) [compound 381]”, the Peptide exchange entry is “+++ (>50 = +++)”. “382 (RPGPQRTTSV; listed as Homo sapiens) [compound 382]”: the Peptide exchange entry is recorded as “++++ (>75% = ++++)”. As to “383 (KPRATWTLKL; listed as Homo sapiens) [compound 383]”, the Peptide exchange result was “+++ (>50 = +++)”. Consider “448 (TVYGEPRKL; listed as Homo sapiens) [compound 448]”, for which the Peptide exchange entry is reported as “++ (>20% = ++)”.

On to “449 (RPKTSVNLISSL; listed as Homo sapiens) [compound 449]”, for which the Peptide exchange entry was “++++ (>75% = ++++)”. For “450 (SAAARALLP; listed as Homo sapiens) [compound 450]” the value was “+ (>10% = +)”; for “451 (VPILPLNHAL; listed as Homo sapiens) [compound 451]”, “++++ (>75% = ++++)”; for “452 (QPVKKNTL; listed as Homo sapiens) [compound 452]”, “++++ (>75% = ++++)”. As to “453 (APALPGQVTI; listed as Homo sapiens) [compound 453]”, the Peptide exchange entry is listed as “++++ (>75% = ++++)”. As for “454 (SPDPAHLESL; listed as Homo sapiens) [compound 454]”, the Peptide exchange result was “++++ (>75% = ++++)”. As for “455 (FPVQATIDF; listed as Homo sapiens) [compound 455]”, the Peptide exchange entry was “++++ (>75% = ++++)”. On to “456 (VPVSHPVLTL; listed as Homo sapiens) [compound 456]”, for which the Peptide exchange result is reported as “+++ (>50 = +++)”. Consider “457 (RPPLSQRHTF; listed as Homo sapiens) [compound 457]”, for which the Peptide exchange entry is on record as “++++ (>75% = ++++)”. Turning to “458 (VPIPTHYFVVL; listed as Homo sapiens) [compound 458]”, the Peptide exchange result is given as “++++ (>75% = ++++)”. As for “459 (SPAPWRPWI; listed as Homo sapiens) [compound 459]”, the Peptide exchange entry is recorded as “++++ (>75% = ++++)”. Consider “460 (APLMPLGKTL; listed as Homo sapiens) [compound 460]”, for which the Peptide exchange result is given as “++++ (>75% = ++++)”. Turning to “461 (MPHLGPGILL; listed as Homo sapiens) [compound 461]”, the Peptide exchange entry is “++++ (>75% = ++++)”. “462 (MPLLADVRL; listed as Homo sapiens) [compound 462]”: the Peptide exchange entry was “++++ (>75% = ++++)”. For “463 (LPTDLFNSVM; listed as Homo sapiens) [compound 463]”, the Peptide exchange result is “++++ (>75% = ++++)”. Regarding “464 (VPFVPRTSV; listed as Homo sapiens) [compound 464]”, the Peptide exchange result is “+++ (>50 = +++)”. Consider “465 (VPKSLPYVL; listed as Homo sapiens) [compound 465]”, for which the Peptide exchange entry is recorded as “++++ (>75% = ++++)”. Turning to “466 (SPMEAILVSRL; listed as Homo sapiens) [compound 466]”, the Peptide exchange result is on record as “++++ (>75% = ++++)”.

In the case of “467 (VPRNQDWLGVSRQL; listed as Homo sapiens) [compound 467]”, the Peptide exchange result is listed as “++++ (>75% = ++++)”.

Regarding “468 (LPSLHVLVL; listed as Homo sapiens) [compound 468]”, the Peptide exchange result is “++++ (>75% = ++++)”.

Take “469 (LPLDTRTSI; listed as Homo sapiens) [compound 469]”: the Peptide exchange entry is “++++ (>75% = ++++)”. On to “470 (RPNGEVKSEL; listed as Homo sapiens) [compound 470]”, for which the Peptide exchange entry is “++++ (>75% = ++++)”.

Take “471 (LPLLAGTLLL; listed as Homo sapiens) [compound 471]”: the Peptide exchange entry was “++ (>20% = ++)”. On to “472 (LPMPAITWY; listed as Homo sapiens) [compound 472]”, for which the Peptide exchange result is on record as “++ (>20% = ++)”. For the substance “473 (LPGEREAAL; listed as Homo sapiens) [compound 473]”, the Peptide exchange result is “++++ (>75% = ++++)”.

Regarding “474 (VPKADLLTL; listed as Homo sapiens) [compound 474]”, the Peptide exchange result was “++++ (>75% = ++++)”. Take “475 (IPLEIQKL; listed as Homo sapiens) [compound 475]”: the Peptide exchange result is reported as “+ (>10% = +)”. With “476 (EPNPVEEIF; listed as Homo sapiens) [compound 476]” the entry was “++ (>20% = ++)”.
